Source: US20030064496

Molecular target: GST-MKK4 fusion protein (Upstate Biotechnologies, Inc) [GST: P08515]

Protein | phosphorylation of GST-MKK4 in a kinase reaction with [gamma-32P]-ATP (SDS-PAGE, phosphorimager)
His-tagged hMEKK2 (polyhistidine-hMEKK2 fusion) (protein) HHHHHHMDDQQALNSIMQDLAVLHKASRPALSLQETRKAKSSSPKKQNDVRVKFEHRGEKRILQFPRPVKLEDLRSKAKIAFGQSMDLHYTNNELVIPLTTQDDLDKAVELLDRSIHMKSLKILLVINGSTQATNLEPLPSLEDLDNTVFGAERKKRLSIIGPTSRDRSSPPPGYIPDELHQVARNGSFTSINSEGEFIPESMDQMLDPLSLSSPENSGSGSCPSLDSPLDGESYPKSRMPRAQSYPDNHQEFSDYDNPIFEKFGKGGTYPRRYHVSYHHQEYNDGRKTFPRARRTQGTSLRSPVSFSPTDHSLSTSSGSSIFTPEYDDSRIRRRGSDIDNPTLTVMDISPPSRSPRAPTNWRLGKLLGQGAFGRVYLCYDVDTGRELAVKQVQFDPDSPETSKEVNALECEIQLLKNLLHERIVQYYGCLRDPQEKTLSIFMEYMPGGSIKDQLKAYGALTENVTRKYTRQILEGVHYLHSNMIVHRDIKGANILRDSTGNVKLGDFGASKRLQTICLSGTGMKSVTGTPYWMSPEVISGEGYGRKADIWSVACTVVEMLTEKPPWAEFEAMAAIFKIATQPTNPKLPPHVSDYTRDFLKRIFVEAKLRPSADELLRHMFVHYH | comparable to the activity of purified mouse MEKK2, and significantly above the background levels seen with control extracts
purified mouse MEKK2 (protein) MDDQQALNSIMQDLAVLHKASRPALSLQETRKAKPSSPKKQNDVRVKFEHRGEKRILQVTRPVKLEDLRSKSKIAFGQSMDLHYTNNELVIPLTTQDDLDKAVELLDRSIHMKSLKILLVVNGSTQATNLEPSPSPEDLNNTPLGAERKKRLSVVGPPNRDRSSPPPGYIPDILHQIARNGSFTSINSEGEFIPESMDQMLDPLSLSSPENSGSGSCPSLDSPLDGESYPKSRMPRAQSYPDNHQEFTDYDNPIFEKFGKGGTYPRRYHVSYHHQEYNDGRKTFPRARRTQGTSFRSPVSFSPTDHSLSTSSGSSVFTPEYDDSRIRRRGSDIDNPTLTVTDISPPSRSPRAPTNWRLGKLLGQGAFGRVYLCYDVDTGRELAVKQVQFNPESPETSKEVNALECEIQLLKNLLHERIVQYYGCLRDPQEKTLSIFMELSPGGSIKDQLKAYGALTENVTRKYTRQILEGVHYLHSNMIVHRDIKGANILRDSTGNIKLGDFGASKRLQTICLSGTGMKSVTGTPYWMSPEVISGEGYGRKADIWSVACTVVEMLTEKPPWAEFEAMAAIFKIATQPTNPKLPPHVSDYTRDFLKRIFVEAKLRPSAEELLRHMFVHYH | The ability of extracts containing his-tagged hMEKK2 to phosphorylate GST-MKK4 was comparable to the activity of purified mouse MEKK2
